For assay [1], the target named is human CXCL11 (human) (UniProt O14625). Put plainly: ELISA. (In general: ELISA stands for enzyme-linked immunosorbent assay.)
Assay [2] has as its target LY3041658 (human). Kind of assay: SPR. In general terms: SPR reads the build-up and loss of mass on a sensor chip optically.

As usually defined, the Kd is the concentration at which binding is half-saturated. High values mean weaker binding, low ones tighter binding.

Sequence of human CXCL9 (Q07325 23-125): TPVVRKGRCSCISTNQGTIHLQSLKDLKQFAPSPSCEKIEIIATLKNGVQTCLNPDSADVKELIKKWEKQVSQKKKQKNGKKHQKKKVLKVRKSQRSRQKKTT
Sequence of human CXCL11 (human) (O14625 22-94): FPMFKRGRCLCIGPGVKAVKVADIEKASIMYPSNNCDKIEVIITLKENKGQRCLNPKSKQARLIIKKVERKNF
Sequence of human CXCL11 (O14625 22-94): as above

LY3041658 (antibody): the fold shift in EC50 compared with the ELR+CXC chemokines in assay [1] worked out at 200 fold.
As for “human CXCL9 (from UniProt Q07325 23-125) (ligand)”, the Kd in assay [2] stood at 100 nM.
With “human CXCL11 (from UniProt O14625 22-94) (ligand)”, in assay [2], the Kd was determined as 100 nM.

(Values after paper PMC7671035.)
